# From patent US9308238B2, “Compositions and methods for modulating EMT and uses thereof” (Whitehead Institute for Biomedical Research, priority 2010, dated 2016)
# B1: SFRP1: Recombinant human SFRP1 protein (R&D Systems), secreted decoy receptor binding canonical and non-canonical Wnt ligands (protein, UniProt Q8N474 32-314, looked up)
# Secreted frizzled-related …: SEYDYVSFQSDIGPYQSGRFYTKPPQCVDIPADLRLCHNVGYKKMVLPNLLEHETMAEVKQQASSWVPLLNKNCHAGTQVFLCSLFAPVCLDRPIYPCRWLCEAVRDSCEPVMQFFGFYWPEMLKCDKFPEGDVCIAMTPPNATEASKPQGTTVCPPCDNELKSEAIIEHLCASEFALRMKIKEVKKENGDKKIVPKKKKPLKLGPIKKKDLKKLVLYLKNGADCPCHQLDNLSHHFLIMGRKVKSQYLLTAIHKWDKKNKEFKNFMKKMKNHECPTFQSVFK
# B2: BMP4: Recombinant BMP4 protein obtained from Stemgent (protein, UniProt P12644 293-408, looked up)
# Bone morphogenetic protein 4: SPKHHSQRARKKNKNCRRHSLYVDFSDVGWNDWIVAPPGYQAFYCHGDCPFPLADHLNSTNHAIVQTLVNSVNSSIPKACCVPTELSAISMLYLDEYDKVVLKNYQEMVVEGCGCR
# Experiments:
# MSP-RAS cells = experiment: Orthotopic tumor formation and metastasis after ex vivo treatment of MSP-RAS tumorspheres; type: in vivo, mice; conditions: for reduction in lung metastases / reduction of metastatic foci in the liver: foci normalized by primary tumor weight, ex vivo treatment; for reduction of tumor weight / reduction of metastatic foci in the liver: on average
# Method: FIGS. 4A-4G. Autocrine Signaling controls tumorigenicity and metastasis of MSP-RAS cells. (FIG. 4A) Migration assay: RAS-transformed MSP (MSP-RAS) were seeded in Boyden Chamber migration assays and recombinant SFRP1 (1 μg/ml) and BMP4 protein (0.5 μg/ml) were added; *control vs. single treatment, p<1×10^−8, **single vs. double treatment with SFRP1 and BMP4 (S+B), p<1×10^−4, n=3. (FIG. 4B) Tumorsphere assay: SFRP1 (1 μg/ml) and BMP4 protein (0.5 μg/ml) were added daily during primary sphere formation (5 days), spheres were dispersed and seeded for secondary sphere formation in the absence of further treatment; #control primary vs. secondary sphere formation, p=0.001; *control vs. single treatment, p<1×10^−4, **single vs. double treatment with SFRP1 and BMP4 (S+B), p<0.01, n(tumorspheres)/1000 cells, n=6. (FIG. 4C) Flow cytometry: CD44 and CD24 cell-surface markers of dissociated primary tumorspheres as described in (B). (FIG. 4D) Orthotopic tumor formation after ex vivo treatment during tumorsphere formation: primary tumorspheres as generated in (B) were pooled, dissociated and 1.0×10^5 cells were implanted in the fat pads of mice; shown are tumor weight and incidence, *indicates absence of tumor, n=5 mice/group. (FIG. 4E) Lung metastasis: fluorescence microscopy images of the major left lung lobe showing GFP-expressing metastatic nodules and quantification of the number of lung surface metastases; *control vs. SFRP1 treatment, p<0.05, **SFRP1 vs. BMP4 or double treatment (S+B), p<0.05, n=5 mice/group. (FIG. 4F) Liver metastasis: fluorescence microscopy images of the liver surface showing GFP-expressing micro-metastatic nodules after implantation of cells as described in (D) and quantification: 5 fields of liver surface were counted per mouse, *control vs. single treatment, p<0.05, **single vs. double treatment (S+B), p<0.05, n=5 mice/group. (FIG. 4G) Tumorigenicity assay: MSP-RAS cells suspended in PBS containing SFRP1 (1 μg/ml), BMP4 (0.5 μg/ml), and a combination of both (S+B) were implanted subcutaneously in mice at indicated cell numbers. In addition, 20 μl of PBS or PBS with proteins at indicated doses was injected peri-tumorally at 1, 2, 3 and 7 days after implanting the MSP-RAS cells.
# We also wished to determine whether in vitro exposure to SFRP1 and BMP4 influenced subsequent in vivo behavior of MSP-RAS cells. For this purpose, we prepared single-cell suspensions from primary control MSP-RAS tumorspheres or from the residual tumorspheres that had formed during a 5 day in vitro treatment with SFRP1, BMP4 or a combination of both. Following injection of these populations into the mammary fat pads of mice, we noted that the tumors that originated from mammospheres of MSP-RAS cells that had been exposed ex vivo to either SFRP1, BMP4 or a combination of both were reduced in weight by 3-fold on average (FIG. 4D). However, we only observed a modest reduction in tumor incidence for the BMP4 and combination-treated groups (30%, FIG. 4D).
# Animal studies. All research involving animals complied with protocols approved by the MIT Committee on Animal Care. For tumorigenicity studies, indicated numbers of cells in 100 μL of Matrigel (BD Biosciences) diluted 1:4 in PBS were injected subcutaneously in the left and right flanks of age-matched female nude (nu/nu) mice. Mice were sacrificed and necropsied after 10 weeks. For orthotopic injections, 1×10^5 cells suspended in PBS were injected into each of the two inguinal mammary glands of age-matched female NOD-SCID mouse. Mice were sacrificed after 10 weeks or when tumors reached a diameter >1 cm. Lung surface metastases were counted using a fluorescent microscope within 3 hr of specimen isolation.
# HMLE-iEMT-a cells = experiment: Boyden chamber migration assay, iEMT-cells; type: cell-based, human; conditions: SFRP1 1 μg/ml/d, BMP4 0.5 μg/ml/d; extent comparable to HTwist and MSP cells
# Method: FIGS. 5A-5H. Concomitant stimulation of Wnt and TGF-beta pathways allows HMLE^24+ cells to enter into a mesenchymal and SC-like state. (FIG. 5A) RT-PCR: N-Cadherin, Zeb1 and Zeb2, L32 was loading control, n=3. Prior RNA isolation, HMLE^24+-shGFP or -shSFRP1 (stable knockdown of SFRP1, FIG. 12A) cells were treated for 3 days with daily doses of indicated factors: anti-DKK1 antibody (10 μg/ml), anti-E-Cadherin antibody (1 μg/ml), TGF-beta 1 (5 ng/ml), Wnt5a (250 ng/ml), (FIG. 5B) Brightfield microscopy: images of control, TGF-beta- and iEMT-cocktail treated HMLE^24+ cells after 14 days of treatment as indicated (see also FIG. 12D). (FIG. 5C) RT-PCR: Zeb1, Zeb2, E-Cadherin and N-Cadherin, L32 was loading control, n=3. After 14 day treatment, cells were expanded in absence of further stimulation for 4 passages. Shown are PBS-treated control HMLE^24+-shGFP and HMLE^24+-shSFRP1 cells, two HMLE^24+-shGFP cultures treated with TGF-beta 1 (TGF-β-a and -b), two HMLE^24+-shSFRP1 cultures treated with the iEMT-cocktail (iEMT-a and -b). […] (FIG. 5G) Lung metastasis: cells expanded for 8 passages after cessation of treatment as described in (C) were transformed with RAS; 1.0×10^5 cells were injected into the mammary fat pads of mice; GFP-labeled metastases on the surface of the lungs were quantified; *control vs. all other groups, p<0.05, n=5 mice/group. […]
# [1] = 5 day ex vivo treatment, mammary fat pad injection
Molecule,reduction in lung metastases (MSP-RAS cells) [fold],reduction of tumor weight (MSP-RAS cells; [1]) [fold],reduction of metastatic foci in the liver (MSP-RAS cells) [fold],effect on migration of iEMT-cells (HMLE-iEMT-a cells),reduction in tumor incidence (MSP-RAS cells; [1]) [%]
B1,2,3,2.5,inhibited,–
B2,7.5,3,5,inhibited,30
